Experimental data reported in patent EP1682577B1.
Blank lines part the entries; values can stand above or below the substance they belong to.

Assays:
Test in all cases: cell-based or functional assay
[1] = biological target: CRHR1 (UniProt P34998)
[2] = biological target: Vasoactive Intestinal Peptide 1 receptor (UniProt P32241)
[3] = biological target: Melanocortin 5 receptor (UniProt P33032)
[4] = biological target: Melanocortin 1 receptor (UniProt Q01726)
Chain of Melanocortin 1 receptor (Q01726 whole entry): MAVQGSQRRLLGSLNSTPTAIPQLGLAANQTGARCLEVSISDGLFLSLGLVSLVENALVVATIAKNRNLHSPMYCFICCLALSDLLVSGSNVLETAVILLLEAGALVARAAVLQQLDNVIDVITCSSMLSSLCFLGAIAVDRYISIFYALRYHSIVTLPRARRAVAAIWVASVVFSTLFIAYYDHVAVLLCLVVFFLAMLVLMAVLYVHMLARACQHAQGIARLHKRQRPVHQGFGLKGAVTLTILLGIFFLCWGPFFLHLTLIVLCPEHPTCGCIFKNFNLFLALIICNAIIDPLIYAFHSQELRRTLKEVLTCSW

Chain of Melanocortin 5 receptor (P33032 whole entry): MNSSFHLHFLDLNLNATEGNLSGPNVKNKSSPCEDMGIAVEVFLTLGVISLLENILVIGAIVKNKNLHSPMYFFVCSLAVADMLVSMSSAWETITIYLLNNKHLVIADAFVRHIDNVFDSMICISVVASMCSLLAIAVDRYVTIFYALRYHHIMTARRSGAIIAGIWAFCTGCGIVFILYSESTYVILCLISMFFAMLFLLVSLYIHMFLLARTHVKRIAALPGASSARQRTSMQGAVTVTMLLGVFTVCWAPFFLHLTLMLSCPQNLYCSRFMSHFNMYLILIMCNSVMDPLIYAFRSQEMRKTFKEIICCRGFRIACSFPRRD
Chain of Vasoactive Intestinal Peptide 1 receptor (P32241 31-457): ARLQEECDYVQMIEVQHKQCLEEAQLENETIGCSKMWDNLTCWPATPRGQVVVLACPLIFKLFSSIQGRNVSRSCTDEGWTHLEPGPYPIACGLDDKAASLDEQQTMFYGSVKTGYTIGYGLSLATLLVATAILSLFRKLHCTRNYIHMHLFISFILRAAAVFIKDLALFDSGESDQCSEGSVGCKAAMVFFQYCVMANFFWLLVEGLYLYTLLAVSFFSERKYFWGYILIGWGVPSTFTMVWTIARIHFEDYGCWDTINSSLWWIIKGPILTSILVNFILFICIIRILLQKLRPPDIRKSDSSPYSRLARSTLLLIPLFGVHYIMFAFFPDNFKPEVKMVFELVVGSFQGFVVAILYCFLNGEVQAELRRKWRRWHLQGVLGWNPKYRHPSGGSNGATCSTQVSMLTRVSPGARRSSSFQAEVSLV
Chain of CRHR1 (P34998 24-415 limits assumed): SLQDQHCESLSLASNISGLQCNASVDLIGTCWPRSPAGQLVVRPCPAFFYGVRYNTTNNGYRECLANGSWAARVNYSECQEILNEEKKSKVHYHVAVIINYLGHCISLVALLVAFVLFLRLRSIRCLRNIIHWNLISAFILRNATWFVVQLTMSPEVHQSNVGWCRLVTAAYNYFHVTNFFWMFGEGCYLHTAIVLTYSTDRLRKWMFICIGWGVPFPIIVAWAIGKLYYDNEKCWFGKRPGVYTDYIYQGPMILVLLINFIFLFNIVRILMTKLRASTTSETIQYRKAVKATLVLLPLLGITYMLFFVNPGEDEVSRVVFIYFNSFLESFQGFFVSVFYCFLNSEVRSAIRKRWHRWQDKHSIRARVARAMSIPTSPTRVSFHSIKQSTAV

- EC50 of cell response (MDC dye) [1]: 0.028 nM
- EC50 of cell response (NY & H30602) [1]: 0.028 nM
- Fmax/ Fb (MDC dye) [1]: 4.2
- Fmax/ Fb (NY & H30602) [1]: 4.3
Substance: CRF (from UniProt P06850 154-194) (peptide)

- EC50 of cell response (MDC dye) [2]: 0.0024 nM
- EC50 of cell response (TB & H30602) [2]: 0.005 nM
- Fmax/ Fb (MDC dye) [2]: 4.9
- Fmax/ Fb (TB & H30602) [2]: 5
Substance: VIP (from UniProt P01282 125-152) (peptide)

- EC50 of cell response (MDC dye) [3]: 2900 nM
- EC50 of cell response (NR& H30602) [3]: 1300 nM
- EC50 of cell response (NY & H30602) [3]: 950 nM
- Fmax/ Fb (MDC dye) [3]: 3.6
- Fmax/ Fb (NR& H30602) [3]: 3.2
- Fmax/ Fb (NY & H30602) [3]: 3.4
Substance: [Nle4-D-Phe7]α-MSH (from UniProt P01189 138-150) (peptide)

- EC50 of cell response (MDC dye) [4]: 820 nM
- EC50 of cell response (TB & H30602) [4]: 770 nM
- Fmax/ Fb (MDC dye) [4]: 5
- Fmax/ Fb (TB & H30602) [4]: 5.1
Substance: α-MSH (from UniProt P01189 138-150) (peptide)
